# Test results taken from paper PMC3514274, “Recombinant sterol esterase from Ophiostoma piceae: an improved biocatalyst expressed in Pichia pastoris” (Microbial Cell Factories, 2012).
# B1: OPE* (recombinant sterol esterase from Ophiostoma piceae) (Ophiostoma piceae) (protein)
# chain: TTVNVNYPEGEVVGVSVLGIESFRGVPFAQPPVGNLRLKPPVRYTENIGTKDTTGIGPSCPQMYLSTGNGELLFQLVGNLINIPLFQTATLSSEDCLTLNIQRPAGTTSNSSLPVLFWIFGGGFELGTNQYYDGIDLLTEGISLGEPFIFVAINYRVGGFGFLGGKEIKADGSSNLGLLDQRIALEWVADNIASFGGDPSKVTIWGESAGSISVFDQMALYGGNNKYKGKALFRGGIMNSGSVVPAAPVDGVKAQAIYDHVVSEAGCAGTSDTLACLRTVDYTKFLTAVNSVPGIVSYSSIALSYLPRPDGVVLIDSPEEIVKNKQYAAVPMIIGDQEDEGTLFAVLPNNITSTAKIVQYFQDLYFYNATKEQLTAFVNTYPTDITAGSPFNTGIFNELYPGFKRLAAILGDMTFTLARRAFLQLCSEVNPDVPSWSYLASYDYGFPFLGTFHATDILQVFYGVLPNYASGSIQKYYINFVTTGDPNKGAAVDIQWPQWSAKKNILQIYATKAVIVADNFRAKSYEYLYNNIGIFRI
# notes: N-terminus (EA)EAYVEF + TTVNVNYPE (6 or 8 extra residues, mixed); monomer/dimer, monomeric in Genapol X-100
# Legend:
# [1] = target: recombinant sterol esterase from Ophiostoma piceae expressed in Pichia pastoris (Ophiostoma piceae); assay: AUC; sedimentation velocity; purified protein 200 μg/mL in 25 mM sodium phosphate buffer pH 7.0, aqueous solution without detergent
# [2] = target: recombinant sterol esterase from Ophiostoma piceae expressed in Pichia pastoris (Ophiostoma piceae); assay: AUC; sedimentation equilibrium; purified protein 200 μg/mL in 25 mM sodium phosphate buffer pH 7.0, aqueous solution without detergent
# [3] = target: deglycosylated recombinant sterol esterase from Ophiostoma piceae (OPE* treated with Endo H in non-denaturing conditions) (Ophiostoma piceae); assay: AUC; sedimentation velocity; purified protein 200 μg/mL in 25 mM sodium phosphate buffer pH 7.0, aqueous solution without detergent
# [4] = substrate: CCCC(=O)OCC(COC(=O)CCC)OC(=O)CCC; assay: pH-stat titration of released fatty acid; format: biochemical, Ophiostoma piceae; details: 1 mM Tris-HCl pH 7.0, 0.15 M NaCl, 5% (v/v) Genapol X-100, 25°C, substrate emulsified in detergent
# Source text: (§1) pH-stat titration of released fatty acid on OPE* (recombinant sterol esterase from Ophiostoma piceae)
# [5] = substrate: CCCC(=O)O[C@H]1CC[C@@]2(C)C(=CC[C@H]3[C@@H]4CC[C@H]([C@H](C)CCCC(C)C)[C@@]4(C)CC[C@@H]32)C1; assay: pH-stat titration of released fatty acid; format: biochemical, Ophiostoma piceae; details: 1 mM Tris-HCl pH 7.0, 0.15 M NaCl, 5% (v/v) Genapol X-100, 25°C, substrate emulsified in detergent
# Source text: as §1
# [6] = substrate: CCCCC/C=C\C/C=C\CCCCCCCC(=O)O[C@H]1CC[C@@]2(C)C(=CC[C@H]3[C@@H]4CC[C@H]([C@H](C)CCCC(C)C)[C@@]4(C)CC[C@@H]32)C1; assay: pH-stat titration of released fatty acid; format: biochemical, Ophiostoma piceae; details: 1 mM Tris-HCl pH 7.0, 0.15 M NaCl, 5% (v/v) Genapol X-100, 25°C, substrate emulsified in detergent
# Source text: as §1
# [7] = substrate: CCCCCCCC/C=C\CCCCCCCC(=O)OCC(COC(=O)CCCCCCC/C=C\CCCCCCCC)OC(=O)CCCCCCC/C=C\CCCCCCCC; assay: pH-stat titration of released fatty acid; format: biochemical, Ophiostoma piceae; details: 1 mM Tris-HCl pH 7.0, 0.15 M NaCl, 5% (v/v) Genapol X-100, 25°C, substrate emulsified in detergent
# Source text: as §1
# [8] = substrate: CCCCCCCC/C=C\CCCCCCCC(=O)O[C@H]1CC[C@@]2(C)C(=CC[C@H]3[C@@H]4CC[C@H]([C@H](C)CCCC(C)C)[C@@]4(C)CC[C@@H]32)C1; assay: pH-stat titration of released fatty acid; format: biochemical, Ophiostoma piceae; details: 1 mM Tris-HCl pH 7.0, 0.15 M NaCl, 5% (v/v) Genapol X-100, 25°C, substrate emulsified in detergent
# Source text: as §1
# purified protein = substrate: CCCCCCCCCCCCCCCC(=O)Oc1ccc([N+](=O)[O-])cc1; assay: purified protein; format: biochemical, Ophiostoma piceae; details: 100 mM sodium phosphate pH 7.0, 0.15 M NaCl, 1% (v/v) Genapol X-100, 25°C
molecule,measurement,setting,value
recombinant sterol esterase from Ophiostoma piceae expressed in Pichia pastoris (enzyme),stoichiometry N,[1],2
same,stoichiometry N,[2],2
deglycosylated recombinant sterol esterase from Ophiostoma piceae (OPE* treated with Endo H in non-denaturing conditions) (enzyme),stoichiometry N,[3],2
B1,Km,[4],5100 ± 300 µM
same,kcat,[4],1041 ± 14 s⁻¹
same,kcat/Km,[4],204000 M⁻¹ s⁻¹
same,Km,[5],1600 ± 200 µM
same,kcat,[5],212 ± 7 s⁻¹
same,kcat/Km,[5],133000 M⁻¹ s⁻¹
same,Km,[6],710 ± 90 µM
same,kcat,[6],798 ± 25 s⁻¹
same,kcat/Km,[6],1.13e+06 M⁻¹ s⁻¹
same,Km,[7],710 ± 90 µM
same,kcat,[7],1362 ± 41 s⁻¹
same,kcat/Km,[7],1.92e+06 M⁻¹ s⁻¹
same,Km,[8],690 ± 100 µM
same,kcat,[8],631 ± 21 s⁻¹
same,kcat/Km,[8],918000 M⁻¹ s⁻¹
same,Km,purified protein,370 ± 30 µM
same,kcat,purified protein,1049 ± 28 s⁻¹
same,kcat/Km,purified protein,2.88e+06 M⁻¹ s⁻¹
